Tests used:
[1] = co-localisation with ARL15-mClover3, SK-RC-39 cells; conditions: glycan lost; control: wild-type CNNM3-mCherry
[2] = fluorescence imaging, SK-RC-39 cells, ER/Golgi markers; conditions: glycan lost; control: wild-type CNNM3-mCherry

B1: CNNM3: N73A (protein)
parent chain: MAAAVAAAGRLGWLFAALCLGNAAGEAAPGPRVLGFCLEEDGAAGAGWVRGGAARDTPDATFLLRLFGPGFANSSWSWVAPEGAGCREEAASPAGEWRALLRLRLRAEAVRPHSALLAVRVEPGGGAAEEAAPPWALGLGAAGLLALAALARGLQLSALALAPAEVQVLRESGSEAERAAARRLEPARRWAGCALGALLLLASLAQAALAVLLYRAAGQRAVPAVLGSAGLVFLVGEVVPAAVSGRWTLALAPRALGLSRLAVLLTLPVALPVGQLLELAARPGRLRERVLELARGGGDPYSDLSKGVLRCRTVEDVLTPLEDCFMLDASTVLDFGVLASIMQSGHTRIPVYEEERSNIVDMLYLKDLAFVDPEDCTPLSTITRFYNHPLHFVFNDTKLDAVLEEFKRGKSHLAIVQKVNNEGEGDPFYEVLGLVTLEDVIEEIIRSEILDESEDYRDTVVKRKPASLMAPLKRKEEFSLFKVSDDEYKVTISPQLLLATQRFLSREVDVFSPLRISEKVLLHLLKHPSVNQEVRFDESNRLATHHYLYQRSQPVDYFILILQGRVEVEIGKEGLKFENGAFTYYGVSALTVPSSVHQSPVSSLQPIRHDLQPDPGDGTHSSAYCPDYTVRALSDLQLIKVTRLQYLNALLATRAQNLPQSPENTDLQVIPGSQTRLLGEKTTTAAGSSHSRPGVPVEGSPGRNPGV
localisation_or_trafficking [1]: decreases
localisation_or_trafficking [2]: abolishes

— article PMC8257531
